This note sets out measurements from publication PMC12470901, “Bioelectrocatalyst for O2 Reduction Based on a Novel Recombinant Two-Domain Laccase from Streptomyces ochraceisleroticus Immobilized on Naphthyl-Modified MWCNTs” (International Journal of Molecular Sciences, 2025).

The target in data set [1] is T1, SoSL (Ac-651) (Streptomyces ochraceiscleroticus, UniProt A0ABW1MU60).
T1 construct: gene ACFP4F_27515
T1 sequence (A0ABW1MU60 37-329): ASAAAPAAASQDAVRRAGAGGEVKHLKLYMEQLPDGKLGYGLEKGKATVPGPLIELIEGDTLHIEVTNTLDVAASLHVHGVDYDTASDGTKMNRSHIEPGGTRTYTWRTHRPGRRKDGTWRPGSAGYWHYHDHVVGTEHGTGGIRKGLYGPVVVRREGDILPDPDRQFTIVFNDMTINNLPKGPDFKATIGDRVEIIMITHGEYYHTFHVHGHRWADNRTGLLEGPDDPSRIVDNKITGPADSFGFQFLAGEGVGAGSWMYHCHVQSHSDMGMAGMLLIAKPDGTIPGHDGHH
Conditions: pH 3.7; inhibitor.

Substrate in data set [2]: CCn1c(=NN=c2sc3cc(S(=O)(=O)O)ccc3n2CC)sc2cc(S(=O)(=O)O)ccc21
Nature of the data set: purified protein. Format: biochemical, Streptomyces ochraceiscleroticus. Conditions: pH 3.5, 30 °C, 50 mM Britton–Robinson buffer, free enzyme (b72 lists the two pH values in reversed order).

Substrate in data set [3]: COc1cccc(OC)c1O
Briefly: purified protein. Format: biochemical, Streptomyces ochraceiscleroticus. Conditions: pH 9.0, 30 °C, 50 mM Britton–Robinson buffer, free enzyme (b72 lists the two pH values in reversed order).

Turning to `F` [sodium fluoride], the “10 mM” value in data set [1] is reported as 67.8 ± 0.6%.

B1: SoSL (Ac-651) (Streptomyces ochraceiscleroticus) (protein)
chain: T1 sequence (A0ABW1MU60 37-329)
notes: TAT signal peptide removed (lacks 36 N-terminal residues of 329), pQE-30 His-tag, E. coli M15 [pREP4], Ni-sepharose; 33 kDa computed, ~35 kDa SDS-PAGE; trimeric
As to B1, in data set [2], the Km (as a rule, the substrate concentration at which the rate is half of its maximum) stood at 50 µM and the catalytic constant (kcat) – broadly, the maximal rate divided by the concentration of active sites – worked out at 106 s⁻¹. In data set [3], the Michaelis-Menten constant (Km) was found to be 760 µM and the kcat worked out at 0.11 s⁻¹.
